Measurements reported in paper PMC7244016, “Knock-down of the TIM/TIPIN complex promotes apoptosis in melanoma cells” (Oncotarget, 2020).

Biological target: T1, Timeless (TIM), full length, FLAG-tagged (human, UniProt Q9UNS1 1-1208)
T1 construct: expressed from pcDNA4-Flag-Timeless; The plasmid is named Flag-Timeless; the results speak of a fused 3xFLAG-tag; also called flag-TIM; pcDNA4-Flag-Timeless
T1 sequence (looked up): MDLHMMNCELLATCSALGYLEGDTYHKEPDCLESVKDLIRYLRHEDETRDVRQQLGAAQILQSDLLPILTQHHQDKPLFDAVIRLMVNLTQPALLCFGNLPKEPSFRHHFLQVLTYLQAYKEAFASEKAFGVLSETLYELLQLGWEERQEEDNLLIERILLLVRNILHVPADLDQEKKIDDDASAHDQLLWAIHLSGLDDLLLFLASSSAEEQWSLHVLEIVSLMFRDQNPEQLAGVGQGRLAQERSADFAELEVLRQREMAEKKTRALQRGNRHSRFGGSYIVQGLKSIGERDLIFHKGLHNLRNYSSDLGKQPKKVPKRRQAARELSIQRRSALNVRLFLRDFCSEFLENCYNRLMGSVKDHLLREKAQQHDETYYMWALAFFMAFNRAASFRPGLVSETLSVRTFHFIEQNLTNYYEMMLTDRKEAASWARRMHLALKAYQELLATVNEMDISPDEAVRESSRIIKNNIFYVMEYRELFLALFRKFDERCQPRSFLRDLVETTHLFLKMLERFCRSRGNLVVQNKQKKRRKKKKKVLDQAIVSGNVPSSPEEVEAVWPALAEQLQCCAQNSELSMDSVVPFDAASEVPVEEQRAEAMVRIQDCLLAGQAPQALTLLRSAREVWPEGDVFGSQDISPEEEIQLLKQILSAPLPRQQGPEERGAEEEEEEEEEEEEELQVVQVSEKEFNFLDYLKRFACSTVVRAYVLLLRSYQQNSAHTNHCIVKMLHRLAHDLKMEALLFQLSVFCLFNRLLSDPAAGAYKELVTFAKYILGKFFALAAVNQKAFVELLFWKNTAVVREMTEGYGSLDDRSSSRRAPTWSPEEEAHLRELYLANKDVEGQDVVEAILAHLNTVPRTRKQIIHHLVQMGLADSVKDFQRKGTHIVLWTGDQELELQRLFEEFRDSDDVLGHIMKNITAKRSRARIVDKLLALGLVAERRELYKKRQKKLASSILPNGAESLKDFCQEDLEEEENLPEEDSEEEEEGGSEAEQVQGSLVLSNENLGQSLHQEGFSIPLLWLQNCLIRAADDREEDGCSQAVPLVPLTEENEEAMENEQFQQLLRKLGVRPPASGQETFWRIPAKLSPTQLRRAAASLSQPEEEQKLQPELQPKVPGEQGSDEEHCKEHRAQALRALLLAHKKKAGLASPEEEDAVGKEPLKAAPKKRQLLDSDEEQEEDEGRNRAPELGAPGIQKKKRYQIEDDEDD
Experiment: SEC; complex co-expressed in 293F cells and FLAG-purified; Superose 6 column in 50 mM HEPES pH 7.8, 150 mM NaCl, 0.5 mM TCEP; peak fractions checked by SDS-PAGE/Coomassie and immunoblot with TIM and TIPIN antibodies
Settings: both partners purified

B1: TIM-interacting protein (TIPIN), full length, FLAG-tagged (natural protein, human, UniProt Q9BVW5 1-301, looked up)
chain: MLEPQENGVIDLPDYEHVEDETFPPFPPPASPERQDGEGTEPDEESGNGAPVRVPPKRTVKRNIPKLDAQRLISERGLPALRHVFDKAKFKGKGHEAEDLKMLIRHMEHWAHRLFPKLQFEDFIDRVEYLGSKKEVQTCLKRIRLDLPILHEDFVSNNDEVAENNEHDVTSTELDPFLTNLSESEMFASELSRSLTEEQQQRIERNKQLALERRQAKLLSNSQTLGNDMLMNTPRAHTVEEVNTDEDQKEESNGLNEDILDNPCNDAIANTLNEEETLLDQSFKNVQQQLDATSRNITEAR
notes: expressed from pcDNA3-Flag-Tipin; also called flag-TIPIN; pcDNA3-Flag-Tipin
  stoichiometry N: 1
